Measurements from the supplement of paper PMC9170038.

Experiments:
[1] = tested on: MS2 coat protein; assay: apparent KD of MS2 coat protein; designed switch direction (-1 OFF switch, 1 ON switch): 1; higher = weaker reporter binding
Procedure, shortened: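 An oligonucleotide input, 200 uM small-molecule ligand, or no input was present during titration of SNAP-549-labelled MS2 coat protein, which was doubled from 0.7 or 1.5 nM to 3 µM. Designed RNA switches had been transcribed on Illumina chips by stalled E. coli RNA polymerase. Apparent KD per design is the median over clusters of curves fitted to normalised cluster fluorescence.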

[2] = tested on: MS2 coat protein; assay: apparent KD of MS2 coat protein; higher = weaker reporter binding; conditions: Eterna round: R107
Procedure, shortened: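 Illumina sequencing clusters served as templates for on-chip transcription of the designed RNA switches. SNAP-549-labelled MS2 coat protein was then titrated in twofold steps from 0.7 or 1.5 nM to 3 µM, allowing 0.8–1.5 h per step at first and 10–20 min per step later. The buffer held 100 mM Tris-HCl pH 7.5, 80 mM KCl and 4 mM MgCl2, without or with constant ligand. Apparent KD is the median per design of normalised cluster binding-curve fits.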

[3] = Eterna round: R95, input ligand: FMN 200 uM
[4] = Eterna round: R95, input ligand: microRNA oligo, concentration not stated
[5] = Eterna round: R95, input ligand: none
[6] = input ligand: microRNA oligo, concentration not stated
[7] = input ligand: theophylline 20 uM
[8] = input ligand: tryptophan 2.4 mM
[9] = input ligand: theophylline 2 mM

| Sequence | apparent KD of MS2 coat protein ([1]; input ligand: FMN 200 uM) [nM] | apparent KD of MS2 coat protein [1, 6] [nM] | apparent KD of MS2 coat protein ([1]; input ligand: none) [nM] | apparent KD of MS2 coat protein ([2]; input ligand: arginine 13.2 mM) [nM] | apparent KD of MS2 coat protein [2, 7] [nM] | apparent KD of MS2 coat protein [2, 8] [nM] | also measured |
| --- | --- | --- | --- | --- | --- | --- | --- |
| AAAAAACAUGAGGAUCACCCAUGUCAAAAGACAUGAGGAUAUGUGCAAAUAAAAUAAGAAACAGAAGGCAUGAAAA [salish99_ss1_r3_102] (puzzle: Same State 1) |  |  |  |  |  |  | apparent KD of MS2 coat protein [1, 3]: 69.1 nM; apparent KD of MS2 coat protein [1, 4]: 210 nM; apparent KD of MS2 coat protein [1, 5]: 229 nM |
| AAAAAACAUGAGGAUCACCCAUGUCAAAAGACUCGAGGAUAUGGGCAAAUAAAAUAAGAACCAGAAGGCGAGAAAA [salish99_ss1_r3_101] (puzzle: Same State 1) |  |  |  |  |  |  | apparent KD of MS2 coat protein [1, 3]: 20 nM; apparent KD of MS2 coat protein [1, 4]: 36.3 nM; apparent KD of MS2 coat protein [1, 5]: 31.7 nM |
| AAAACAGGCUUCCUCUCGUCUCAAAAUGCACAUGAGGAUCACCCAUGUAAAACCCAGCGUAGUGUCGCACUACCUGA [Laresoar] (puzzle: Sensor for hsa-mir-208a) |  |  |  |  |  |  | apparent KD of MS2 coat protein [1, 3]: 161 nM; apparent KD of MS2 coat protein [1, 4]: 23.4 nM; apparent KD of MS2 coat protein [1, 5]: 126 nM |
| AAAAGAAACACAGGAUAUACCGCACUUAACGCGGUAGAAGGGUGGGACAUGAGGAUCACCCAUGUGGCCUGAGCACCAGGCCGC [Orgele] (Eterna round: R96, puzzle: Same State NG 1) | 47 | 5.38 | 21.8 |  |  |  |  |
| AAAAGAAACAUGUACCUGAGUACAUGAAAACAUGAGGAUCACCCAUGUAAUAAGCGGGUGGCUCGUCUUAUAAGAAA [JL pocket 27] (Eterna round: R96, puzzle: Sensor for hsa-mir-208a) | 890 | 70.4 | 715 |  |  |  |  |
| AAAAGACAGGCAGGAUAUGGGCCUGGCUCUGAUAUCAGAGCCUACACAUGAGGAUCACCCAUGUCCCAGAAGGGCCUGUAGAAG [Cetiriqu] (Eterna round: R96, puzzle: Same State NG 2) | 19.4 | 65.3 | 79.1 |  |  |  |  |
| AAAAUCGCGAUAGGAUAUGGGAAAGGAAGUGUACCAGAAGGAUCAGCGCCGACUGGACAUGAGGAUCACCCAUGUCGAGUCUUA [PowerStrip SSNG 1.2] (Eterna round: R96, puzzle: Same State NG 1) | 42.2 | 26.6 | 80.5 |  |  |  |  |
| AAAAUGGUAUGUUACAUGAGGAUCACCCAUGUACUCUAAUCUGAGGAUAUGGGAAUGAAGAAGAACCAGAAGGCAGACAUCCAA [AK SSNG3-V2-23] (Eterna round: R96, puzzle: Same State NG 3) | 258 | 91.8 | 104 |  |  |  |  |
| AAAAUGUGAUGUUACAUGAGGAUCACCCAUGUAGUGACAACUAAGGAUAUCCGAAAAAAAGGAGAGGAGAAGGUAGGAUCACAA [AK SSNG3-V2-16.2] (Eterna round: R96, puzzle: Same State NG 3) | 18.3 | 33.3 | 46.3 |  |  |  |  |
| AAACACGGCAUAACACCGUGACAUGAGGAUCACCCAUGUACACAGGAUAUCAUGGCAAAACGCCAUGAGAAGGGUGAUCAAGAC [Telate] (Eterna round: R96, puzzle: Same State NG 3) | 464 | 68.1 | 35.1 |  |  |  |  |
| AAACAGCCCAACGGAGGGCCACAUGAGGAUCACCCAUGUACAUAGGAUAUCACGCCAACGAGGCGUGAGAAGGGUGAUUAAAAC [Inesteen] (Eterna round: R96, puzzle: Same State NG 3) | 18 | 51.2 | 53.9 |  |  |  |  |
| AAACAGCCGAACGGAGGGCCACAUGAGGAUCACCCAUGUACAUAGGAUAUCAUGCCAACGAGGCAUGAGAAGGGUGAUUAAAAC [Usinvema] (Eterna round: R96, puzzle: Same State NG 3) | 11.7 | 350 | 359 |  |  |  |  |
| UUUACAUGAGGAUCACCCAUGUGCCAUGAUACCAGACAUGAAAAUGUCCCUUGGCAGCAUGAAGGUACCUCAUCGGGAAACCGAA [Malomerice] |  |  |  | 28.5 | 95.7 | 53 |  |
| UUUCAAGUAUCGGCCGCCACUCUAGUUGGUUGUUCAAUCCGAUUACAUGAGGAUCACCCAUGUCUGAGGACCGGGAUAAAGUAAU [theeternabot_sameState_MS2_Trp_B_25] |  |  |  | 20.4 | 32.5 |  | apparent KD of MS2 coat protein [2, 9]: 31.2 nM |
| UUUGAGAUAACAGAUACCAGCGUGUUAUAAAACAUGAGGAUCACCCAUGUAGUGAUCAAGCGCCCUUGGCAGCUGGUAUUUUAGG [7.G] |  |  |  | 70.3 | 186 | 146 |  |
| UUUGAUAGGACAGAUACCAGCGUGUUGUUGAACAUGAGGAUCACCCAUGUAGUGAUCAGGCGCCCUUGGCAGCUGGUUUGUUAGG [7.N] |  |  |  | 265 | 363 | 366 |  |
| UUUUAAGGGAUCGGUGCUGGUAGCAGAGAUACCAGAGUAAUGAUACUCCCUUGGCAGCUCAGUACAUGAGGAUCACCCAUGUUUU [Exclusion Theophylline A GF25] |  |  |  | 16.7 | 23.2 | 18.1 |  |
| UUUUACGGCGAUCUGGGUUUACCAGAUCGGCGAGGACCGGUACGGCCGCCACUCGUGUUUCUUUAACAUGAGGAUCACCCAUGUA [SSTA #1] |  |  |  | 32.4 | 77.3 | 16 | apparent KD of MS2 coat protein ([2]; input ligand: none): 38.4 nM; apparent KD of MS2 coat protein [2, 9]: 50.9 nM |
| UUUUACGGCGAUCUGGGUUUACCAGAUCGGCGAGGACCGGUACGGCCGCCACUCGUGUUUCUUUGACAUGAGGAUCACCCAUGUA [whbob_SS_trypto A_f1] |  |  |  | 28.9 | 42.5 |  | apparent KD of MS2 coat protein [2, 9]: 39.2 nM |
| UUUUAGCAUCGAAGGAGCGCUGGUAGGUGACACAUGAGGAUCACCCAUGUGCUCCUUACCGAGCAGGUAGGUCGCGAUGCUAUUU [SSAB NP+V+V2 #9] |  |  |  | 20 | 35.4 | 25.1 | apparent KD of MS2 coat protein ([2]; input ligand: none): 23.7 nM; apparent KD of MS2 coat protein [2, 9]: 29.4 nM |
| UUUUUCGCGGGCGAUACCAGCUUGAUCGUACUGGCCUGGUACAUGAGGAUCACCCAUGUAAGCCCUUGGCAGCGCGCGCGAGAAG [#1 Exclusion - Theophylline B Attempt #2 (HarryS)] |  |  |  | 10.8 | 17.7 | 12 | apparent KD of MS2 coat protein ([2]; input ligand: none): 11.5 nM; apparent KD of MS2 coat protein [2, 9]: 30.4 nM |
| UUUUUCGCGGGUGAUACCAGCAAAGCUGUACUGGUCUGGUACAUGAGGAUCACCCAUGUUUGCCCUUGGCAGCGCUCGGGAGAAG [#21 Exclusion-TheophyllineB] |  |  |  | 27.7 | 47.9 | 28.6 |  |
| UUUUUUAUUAUGGCGUAUCGGAAAACCGAUACCAGUACAGAAAUGUACCCUUGGCAGCGGCGUUUUACAUGAGGAUCACCCAUGU [Ex Theophylline A 5] |  |  |  | 12.4 | 18.9 | 15.4 |  |
